Test results published in US20190359986A1.

Target: TNF-α
Assay: cell-based or functional assay

Substance	EC50, L929 cytotoxicity assay (protection of L929 cells from TNF-α) [ng/mL]	further results
mouse TNFR2 Δ7 with His-tag, from clone 1144-4 transfected HeLa cells (receptor)		EC50, L929 cytotoxicity assay; extracellular media from 1144-4 transfected HeLa cells: 2.4 ng/mL
Recombinant soluble TNFR2 (rsTNFR2) (from UniProt P25119 23-258) (receptor)	698	
mouse TNFR2 Δ7 without His-tag, from clone 1145-3 transfected HeLa cells (from UniProt P25119 23-474) (receptor)		EC50, L929 cytotoxicity assay; extracellular media from 1145-3 transfected HeLa cells: 2.4 ng/mL
Etanercept (Fc fusion)	1.1	
